# Experimental data as given in patent US20140359899A1.
# Test system: T1, OC[C@H]1O[C@@](CO)(O[C@H]2O[C@H](CO)[C@@H](O)[C@H](O)[C@H]2O)[C@@H](O)[C@@H]1O
# T1 construct: Primers for the full length ORF of AtSWEET11 (AtSWT11FattB1 and AtSWT11attB2) or AtSWEET12; expressed in transfected cells; host or cells: Xenopus oocytes injected with capped cRNA from pOO2-GW
# Test: Oocyte uptake assay: [14C]-sucrose uptake in Xenopus oocytes expressing AtSWEET12
# Type: cell-based, Arabidopsis
# Details: other: Xenopus oocytes; FIG. 1F
# Chain of AtSWEET12 (Arabidopsis thaliana) (chain, as listed by the source): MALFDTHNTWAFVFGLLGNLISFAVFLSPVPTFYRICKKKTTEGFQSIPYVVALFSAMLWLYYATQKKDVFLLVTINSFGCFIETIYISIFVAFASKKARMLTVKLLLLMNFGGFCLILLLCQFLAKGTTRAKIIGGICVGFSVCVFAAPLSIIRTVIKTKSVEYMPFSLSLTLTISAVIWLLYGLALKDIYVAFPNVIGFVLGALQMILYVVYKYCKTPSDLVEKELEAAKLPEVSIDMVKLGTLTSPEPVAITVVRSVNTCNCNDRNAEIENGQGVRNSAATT
substance,measurement,value
AtSWEET12 (Arabidopsis thaliana),Km,70 mM
